# Measured values reported in the RNAGym collection of RNA variant scans (doi:10.1073/pnas.2313332121).
# B1: TPR t1 (parent)
# chain: GACCAAUCUGCCCUCAGAGCUCGAGAACAUCUUCGGAUGCAGAGGAGGCAGGCUUCGGUGGCGCGAUAGCGCCAACGUCCUCAACCUCCAAUGCAUCCCACCACAUGAUGAUGCCUGAAGAGCCUUGGUUUUUUG
# Variants of: B1
# Assay: polymerase ribozyme fitness, log enrichment relative to wild type (log ratio); higher = more active; in vitro selection for triplet polymerase activity
# In short: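 Genotype fitness is the logarithm of its enrichment divided by wild-type enrichment, using inverse-variance-weighted averages of replicates. That logarithm is base 2. Enrichment was measured by Illumina sequencing of input and output libraries from one triplicate in vitro selection round, with frozen incubation at −7 °C, on PCR-built, transcribed mutant libraries of each subunit of a heterodimeric triplet polymerase ribozyme, retaining genotypes with ≥10 input reads and ≥1 read per output.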
row,Variant,polymerase ribozyme fitness (log ratio)
1,G63U G120C U131A,0.507
2,G63U G122A,-2.28
3,G63U G127A,-2.25
4,G63U U81C C86A U129C,-5.92
5,G63U U87A C114A,-3.29
6,G63U U92A U96A G113C,-3.99
7,G63U U96C,-1.31
8,G63U U106C,-1.92
9,G63U U112A G120A,-1.02
10,G63U U130C,-1.84
11,G63U U134G,-1.64
12,C64A A83U,-7.05
13,C64A C80G A83U C99U A103C U125A,-7.56
14,C64A C80G A103C U109G A118U,-5.65
15,C64A C86U C98U,-7.04
16,C64A C115U,-5.54
17,C64A C124A,-4.7
18,C64A G69C A75U U87A U96A,-1.55
19,C64A G93C G117C,-6.1
20,C64A G113A,-6.92
21,C64A G117C,-6.03

row,Variant,polymerase ribozyme fitness (log ratio)
1,C64A G117U,-6.44
2,C64A G120C,-3.88
3,C64A U78A G93A,-6.61
4,C64A U92A C98U G110C C114A U133A,-6.59
5,C64A U96G C123U,-6.2
6,C64A U112G,-6.64
7,C64A U112G G122A,-7.31
8,C64G A121C,-5.13
9,C64G C79G G120A G135C,-5.74
10,C64G C114A,-6.24
11,C64G C124A,-4.25
12,C64G G77A A111G U116C,-6.18
13,C64G G120U,-6.39
14,C64G U106A,-5.51
15,C64G U112G,-6.14
16,C64U A66G,-3.44
17,C64U A66U C72U C97A C123G,-4.97
18,C64U A74C A75U G110A,-1.89
19,C64U A74C A90C C101G,-4.26
20,C64U A75U G93A,-0.503
21,C64U A75U U116G G122A C124G,0.737

row,Variant,polymerase ribozyme fitness (log ratio)
1,C64U A83C,-0.261
2,C64U A83C A100C C101G U129G,-3.82
3,C64U A84C C94G,-1.23
4,C64U A121C,1.93
5,C64U C73U C82U,-0.57
6,C64U C76G,-3.51
7,C64U C85A,-3.12
8,C64U C86A,-1.42
9,C64U C86A U129A,-1.99
10,C64U C88A U96G U109C A121G,-6.55
11,C64U C88G,-1.13
12,C64U C98U,-0.89
13,C64U C98U G120U,-0.972
14,C64U C101A,-1.22
15,C64U C115U,-0.234
16,C64U C124U,0.756
17,C64U C124U U130G,0.174
18,C64U G110U,-0.774
19,C64U G117C,-2.58
20,C64U G120A,0.482
21,C64U G120U,0.23

row,Variant,polymerase ribozyme fitness (log ratio)
1,C64U G120U C123G,1.13
2,C64U G128A,-1.84
3,C64U G135C,0.469
4,C64U U78C,-0.191
5,C64U U92A,-3.06
6,C64U U96C,-0.0442
7,C64U U106G G120C,-0.96
8,C64U U112G C124G G135A,1.56
9,C64U U116A G120U,-1.79
10,C64U U130A,-0.073
11,C64U U133A,-0.0271
12,C64U U133G,-0.439
13,G65A,-3.57
14,G65A A119U,-6.05
15,G65A C79U,-3.57
16,G65A C114G,-7.73
17,G65A G117A,-4.47
18,G65C,-5.62
19,G65C C123G U133A,-4.9
20,G65C U87A,-5.6
21,G65U,-4.27
